Assay results: US10766952B2, “Methods for reducing migraine frequency in a subject in need thereof” (Beth Israel Deaconess Medical Center, Inc., priority 2017, dated 2020)
Ends that are not written are not given here.

Tested on: naïve central trigeminovascular neurons
Experiment: not given
Conditions: Storer et al., 2004; cited from earlier work

Row | Compound | responses to electrical stimulation of the superior sagittal sinus and microiontophoretic administration of L-glutamate
1 | NCCCC[C@H](NC(=O)[C@@H](Cc1cc(Br)c(O)c(Br)c1)NC(=O)N1CCC(N2Cc3ccccc3NC2=O)CC1)C(=O)N1CCN(c2ccncc2)CC1 [BIBN4096BS] | inhibits

Tested on: CGRP activity (skin blood flow after saphenous nerve stimulation)
Experiment: Skin vasodilatation induced by stimulation of rat saphenous nerve
Type: in vivo
Conditions: 400 nmol/kg i.v., 3-5 minutes before stimulation; FIG. 2A, 2B
Method: To test antagonist activity of anti-CGRP antibodies, effect of the antibodies on skin vasodilatation by stimulation of rat saphenous nerve was tested using a rat model described previously. Escott et al., Br. J. Pharmacol. 110:772-776, 1993. In this rat model, electrical stimulation of saphenous nerve induces release of CGRP from nerve endings, resulting in an increase in skin blood flow. Blood flow in the foot skin of male Sprague Dawley rats (170-300 g, from Charles River Hollister) was measured after saphenous nerve stimulation. Rats were maintained under anesthesia with 2% isoflurane. Bretylium tosylate (30 mg/kg, administered i.v.) was given at the beginning of the experiment to minimize vasoconstriction due to the concomitant stimulation of sympathetic fibers of the saphenous nerve. Body temperature was maintained at 37° C. by the use of a rectal probe thermostatically connected to a temperature controlled heating pad. […]
For experiments shown in FIGS. […] Skin blood flow, measured as blood cell flux, was monitored with a laser Doppler flow meter. […]
For experiments shown in FIGS. 4A and 4B, saphenous nerve was exposed surgically before antibody administration. […] Skin blood flow, measured as blood cell flux, was monitored with a laser Doppler flow meter. […]

Row | Compound | blood flow increase stimulated by electronic pulses on saphenous nerve
2 | CGRP 8-37: positive control compound (vasodilatation antagonist) | inhibited

Molecular target: T1, binding of G1 Fab to human α-CGRP on the chip (Homo sapiens)
T1 construct: made in house; host or cells: E. coli (Fab); chip peptide purchased
T1 sequence (P01859 with tags, fused parts or gaps, other chains not shown): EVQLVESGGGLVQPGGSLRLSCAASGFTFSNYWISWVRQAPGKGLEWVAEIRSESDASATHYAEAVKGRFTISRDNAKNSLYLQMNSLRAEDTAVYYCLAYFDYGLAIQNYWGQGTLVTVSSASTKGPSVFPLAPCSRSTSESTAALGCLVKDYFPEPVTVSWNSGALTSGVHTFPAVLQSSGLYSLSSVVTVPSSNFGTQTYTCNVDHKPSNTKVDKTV
Experiment: Epitope mapping of antibody G1 by peptide competition using Biacore
Conditions: 10 μM peptide in 50 nM G1 Fab; FIG. 6
From the text: N-biotinylated human α-CGRP was captured on SA sensor chip. […] Y axis represents percentage of binding blocked by the presence of the competing peptide compared with the binding in the absence of the competing peptide.
Human α-CGRP was purchased as an N-biotinylated version to enable its high-affinity capture via SA sensor chips. […] All these peptides are amidated at the C-terminus.

Row | Compound | percentage of binding of G1 Fab to human α-CGRP blocked by competing peptide
3 | 1-13: human α-CGRP fragment, SEQ ID NO: 40, ACDTATCVTHRLA (ACDTATCVTHRLA-OH; cysteine pairing not given here) | did not compete
4 | 1-19: human α-CGRP fragment, SEQ ID NO: 39, ACDTATCVTHRLAGLLSRS (ACDTATCVTHRLAGLLSRS-OH; cysteine pairing not given here) | did not compete
5 | 1-36: human α-CGRP fragment, SEQ ID NO: 38, ACDTATCVTHRLAGLLSRSGGVVKNNFVPTNVGSKA (ACDTATCVTHRLAGLLSRSGGVVKNNFVPTNVGSKA-OH; cysteine pairing not given here) | about 40%
6 | 19-36: human α-CGRP fragment, SEQ ID NO: 37, SGGVVKNNFVPTNVGSKA (SGGVVKNNFVPTNVGSKA-OH) | did not compete
7 | adrenomedullin: SEQ ID NO: 47, YRQSMNNFQGLRSFGCRFGTCTVQKLAHQIYQFTDKDKDNVAPRSKISPQGY | did not compete
8 | calcitonin: SEQ ID NO: 45, CGNLSTCMLGTYTQDFNKFHTFPQTAIGVGAP | did not compete
9 | human amylin: SEQ ID NO: 46, KCNTATCATQRLANFLVHSSNNFGAILSSTNVGSNTY | did not compete
